In the supplement of paper PMC12764529:
± gives the half width of the 95% confidence interval.

What was measured:
[1] = folding stability dG unfold from trypsin proteolysis; higher = more stable
Outline: (§1)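 Sequencing followed digestion of designed mini-proteins with trypsin and chymotrypsin, each at 11 concentrations in threefold dilutions together with a no-protease condition. The mini-proteins were under 80 residues, had no cysteine, sat in a PA-tagged cDNA display construct, and were kept only if AlphaFold2 dimer inter-PAE was above 15. From the counts, Bayesian fitting gave K50, and unfolding free energy was derived against a sequence-predicted unfolded-state K50 and a shared folded-state K50, per protease or combined.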

[2] = folding stability dG unfold from chymotrypsin proteolysis; higher = more stable
Outline: as §1

[3] = folding stability dG unfold (combined trypsin and chymotrypsin); higher = more stable
Outline: as §1

Sequence | folding stability dG unfold [1] [kcal/mol] | folding stability dG unfold [2] [kcal/mol] | folding stability dG unfold [3] [kcal/mol]
SAGGSAGGSAGGVEIVIMFPRGMPPEQFAKMIAKWLRRQGLPPNVKVDIKIIPIDPDDMSAGGSAGGSAGGS [r10_746_TrROS] | 2.82 ± 0.051 | 3.35 ± 0.066 | 3.15 ± 0.18
SAGGSAGGSAGGVGKDKPVIIKIKIKRKVYGLNTPELIAEEEEEIVVVVHPDVNPEKIKPSAGGSAGGSAGG [r7_591_TrMRF] | 1.06 ± 0.074 | 2.34 ± 0.056 | 1.83 ± 0.35
SAGGSAGGSAGGVKPGDFVLIKLTLTEKYYDPETGELIEEKEVELTILIPKGTSLEELKLSAGGSAGGSAGG [r7_591_TrROS_Hall] | 2.3 ± 0.17 | 1.96 ± 0.089 | 2.17 ± 0.25
SAGGSAGGSAGGVVVVEVEIRLSDEEIEALKDLGISAEDLTLRVTVVVELPPPPPAEEESAGGSAGGSAGGS [r10_1149_TrROS_Hall] | 2.23 ± 0.2 | 1.04 ± 0.13 | 1.5 ± 0.21
SAGGSAGGSAGGWDVEIEPFPDGFIFITAEGPNGRKLVIVVMVVPEGKLMYMIVPLDDLSAGGSAGGSAGGS [r10_140_TrROS] | 2.35 ± 0.095 | 3.71 ± 0.097 | 3.34 ± 0.19
SAGGSAGGSAGGWIRNKDGKPVKLEIYPFPVEMWMYRKKPDGGWEPHPMRMPFTFIRITPSAGGSAGGSAGG [r7_90_TrROS] | 1.59 ± 0.049 | 1.55 ± 0.11 | 1.65 ± 0.11
SAGGSAGGSAGGWYIYFPNHYYPIKKITINPGGNIEIEFPNGNERTFDNVSIMPPGQEISAGGSAGGSAGGS [r10_1151_TrROS] | 0.178 ± 0.047 | 0.105 ± 0.14 | 0.219 ± 0.097
SAGGSAGGSAGGYFIRINNGRTFPFPSPEDAEEIVKTIARPFGHPDMTIEIYRMPPEQFPSAGGSAGGSAGG [r7_839_TrROS] | -0.0675 ± 0.22 | -0.1 ± 0.24 | 0.0194 ± 0.18
SAGGSAGGSAGGYIEIVFAHPDPEPGYKYAMVMEIQMDPPGNMEMNIRVIKDPEDAKEAFSAGGSAGGSAGG [r11_792_TrROS] | 1.35 ± 0.12 | 1.43 ± 0.067 | 1.41 ± 0.19
SAGGSAGGSAGHMVKVKITKSKGGSSLPLEEKEIELDIDEEKLEELKEEAKKKGYTVEIESAGGSAGGSAGG [r17_18_JUSTAS] | 0.0424 ± 0.11 | 0.0362 ± 0.15 | -0.0397 ± 0.26
SAGGSAGGSAGHRSVMVTVDDIAKENGIKIPPGSYLMVTVEGNKVKDIMIQPMKPKPEDPSAGGSAGGSAGG [r11_616_TrROS] | -0.499 ± 0.44 | -0.0198 ± 0.24 | -0.17 ± 0.18
SAGGSAGGSAGIEIELNGKPVTIHPNPDGYYRVRFPGPGKSILIPGMPPDDIKDFAKELLSAGGSAGGSAGG [r11_1085_TrROS] | -0.161 ± 0.15 | 0.137 ± 0.15 | 0.0206 ± 0.1
SAGGSAGGSAGIEIHVMEDPDGRWWLMITIKVKYKVRNPEDGDPIFEFEVTYTIMIWLKASAGGSAGGSAGG [r17_124_TrROS] | 4.3 ± 0.24 | 5.9 ± 0.17 | > 6
SAGGSAGGSAGIKIPPGQKLSIEENPDGNMEIKFPDPGQKFTIPPNAPIEVDPNNWIYIKSAGGSAGGSAGG [r17_49_TrROS] | 0.00801 ± 0.33 | 0.0738 ± 0.4 | 0.181 ± 0.33
SAGGSAGGSAGIPLGPDGGLIVTEGPDGPVEERLFASPEEARRWIEEHLPEGWRVVFRPLSAGGSAGGSAGG [r11_983_TrMRF] | 1.15 ± 0.017 | 1.6 ± 0.13 | 1.47 ± 0.058
SAGGSAGGSAGIRLDSLEEALKYIRKNFPPGRTVEIRVYDGDKPVEITVQVDENGDIKIVSAGGSAGGSAGG [r17_69_TrROS] | 2.91 ± 0.15 | 3.227 ± 0.02 | 3.19 ± 0.092
SAGGSAGGSAGKAKIVKIEKVKNKNGETYYIIKLEGKKEIFVIKDKNGKKKKIPLKELKPSAGGSAGGSAGG [r17_286_TrROS_Hall] | 1.42 ± 0.043 | 2.37 ± 0.026 | 2.11 ± 0.048
SAGGSAGGSAGKEYIVRITLPNGKVYEFPGKLEDVVKALPPEYKDAVIEVFDPRTGKRVSSAGGSAGGSAGG [r11_353_TrMRF] | 2.53 ± 0.049 | 4.26 ± 0.057 | 3.84 ± 0.089

Sequence | folding stability dG unfold [1] [kcal/mol] | folding stability dG unfold [2] [kcal/mol] | folding stability dG unfold [3] [kcal/mol]
SAGGSAGGSAGKEYYVVAKVEDPSTGKVTVYVGPFSDFVKTFDPKNSKVEFFLVEKDALKSAGGSAGGSAGG [r11_334_TrMRF] | 1.87 ± 0.073 | 3.31 ± 0.044 | 2.89 ± 0.077
SAGGSAGGSAGKIDPKDIEKVEFEIDEESGKGKAFVILKNGEPAEIEFSSIEEAIKALLGSAGGSAGGSAGG [r11_339_TrMRF] | 1.93 ± 0.099 | 0.981 ± 0.14 | 1.37 ± 0.16
SAGGSAGGSAGKIEIIKDKKNGKYTVKIRNKDGEEIEIEVDSLEELEELAKKLNIEVEVESAGGSAGGSAGG [r11_1049_TrROS_Hall] | 2.33 ± 0.16 | 3.4 ± 0.21 | 3.18 ± 0.15
SAGGSAGGSAGKIEIKVVKKTPNYVYYEIRFEETKKTIIVKAKSKEDAEEAAKKLLKELKSAGGSAGGSAGG [r11_848_TrROS_Hall] | 2.31 ± 0.099 | 2.88 ± 0.062 | 2.62 ± 0.17
SAGGSAGGSAGKIEIYPNDNQYYIKITVPRRNPNNGKWERQERTIPMPPDQAKELLKNGISAGGSAGGSAGG [r11_389_TrROS] | 0.0667 ± 0.14 | -0.439 ± 0.45 | -0.17 ± 0.3
SAGGSAGGSAGKIKIKNEDGSEYEVKKIEITIKNENGEKKKIKLEIELPKAKEVKIEKKKSAGGSAGGSAGG [r11_804_TrROS_Hall] | -1.2 ± 0.83 | 0.32 ± 0.087 | -0.13 ± 0.29
SAGGSAGGSAGKKIKYRITIYNKKTGKTIEIEIEMSEDEIKKIAEELAKKYNVKIKIEPVSAGGSAGGSAGG [r11_515_TrROS_Hall] | 3.71 ± 0.13 | 4.79 ± 0.13 | 4.56 ± 0.18
SAGGSAGGSAGKKIPFGKNVKILEIEEIDPDIIIIKFENSVFIVRILPNGEVKVIKFDIDSAGGSAGGSAGG [r11_612_TrMRF] | 1.83 ± 0.042 | 2.4 ± 0.027 | 2.33 ± 0.09
SAGGSAGGSAGKKIPKKIIPKINLKVELVKSKIYYDKKKKKIVKIEYEFKITYPNGFKATSAGGSAGGSAGG [r11_890_TrMRF] | 1.44 ± 0.053 | 1.97 ± 0.11 | 1.83 ± 0.2
SAGGSAGGSAGKKKIKLLIFDKKTNKLYVVEVELTKDGKIKITKIKEIYEVKPGEKLKLLSAGGSAGGSAGG [r11_750_TrROS_Hall] | 0.981 ± 0.044 | 1.3 ± 0.26 | 1.19 ± 0.25
SAGGSAGGSAGKKKKKKKKKPPVTLTVEIEIEINGKKYIAKKKVKLNKDGKLEVEVEIYPSAGGSAGGSAGG [r11_555_TrROS_Hall] | 2.4 ± 0.37 | 3.23 ± 0.065 | 3.13 ± 0.41
SAGGSAGGSAGKKKKKPKKKYVFIVIKINLSEEELKKLAEELGIDKVFKNENGYAVLVVKSAGGSAGGSAGG [r11_64_TrROS_Hall] | 2.19 ± 0.12 | 3.56 ± 0.059 | 3.15 ± 0.13
SAGGSAGGSAGKKKTITIKIPGMSKEEIAKLIKEKFGPNVKITEIKENKDNLLEITVEVESAGGSAGGSAGG [r11_580_TrROS_Hall] | 2.79 ± 0.22 | 2.79 ± 0.19 | 2.99 ± 0.24
SAGGSAGGSAGKKKVKLVEFDEETGYALLEVEDEETGETKLVLVPMTAEELEALPNIEVLSAGGSAGGSAGG [r17_46_TrROS_Hall] | 2.14 ± 0.24 | 1.91 ± 0.079 | 2.08 ± 0.24
SAGGSAGGSAGKKKVLMTVDEIEKKLGKKIKPGSLVLVEVENGKVKKIEIFDVKKKPKKKSAGGSAGGSAGG [r11_616_TrROS_Hall] | 0.943 ± 0.09 | 1.07 ± 0.076 | 1 ± 0.21
SAGGSAGGSAGKKKYKIVSIEIERNKDGNSLTVKIKLENGKELTLTFPTEEDLKNLKIKASAGGSAGGSAGG [r11_711_TrROS_Hall] | 1.59 ± 0.1 | 3.104 ± 0.028 | 2.78 ± 0.075
SAGGSAGGSAGKKPIKEVTITLPPGAKIVKIEIEKTEDGKYILKITVEVDGKLYEFTFELSAGGSAGGSAGG [r11_1013_TrROS_Hall] | 3.13 ± 0.25 | 4.27 ± 0.14 | 3.98 ± 0.29
